Values quoted from earlier work in patent US6319955A, “Use of MEK1 inhibitors as protective agents against damage due to ischemia” (priority 2000, dated 2001).

Conditions: compared with native tPA

B1: C84S tPA (protein, UniProt P00750 36-562, looked up, variant C84S)
Tissue-type plasminogen …: SYQVICRDEKTQMIYQQHQSWLRPVLRSNRVEYCWCNSGRAQCHSVPVKSCSEPRCFNGGTCQQALYFSDFVCQCPEGFAGKCSEIDTRATCYEDQGISYRGTWSTAESGAECTNWNSSALAQKPYSGRRPDAIRLGLGNHNYCRNPDRDSKPWCYVFKAGKYSSEFCSTPACSEGNSDCYFGNGSAYRGTHSLTESGASCLPWNSMILIGKVYTAQNPSAQALGLGKHNYCRNPDGDAKPWCHVLKNRRLTWEYCDVPSCSTCGLRQYSQPQFRIKGGLFADIASHPWQAAIFAKHRRSPGERFLCGGILISSCWILSAAHCFQERFPPHHLTVILGRTYRVVPGEEEQKFEVEKYIVHKEFDDDTYDNDIALLQLKSDSSRCAQESSVVRTVCLPPADLQLPDWTECELSGYGKHEALSPFYSERLKEAHVRLYPSSRCTSQHLLNRTVTDNMLCAGDTRSGGPQANLHDACQGDSGGPLVCLNDGRMTLVGIISWGLGCGQKDVPGVYTKVTNYLDWIRDNMRP
in vivo half life, in words: longer in vivo half life than native tPA
